Assay results from patent US20260049143A1 (KYMAB, published 2026).

T1: human ICOS expressed on cells (human, UniProt Q9Y6W8 21-199)
T1 sequence: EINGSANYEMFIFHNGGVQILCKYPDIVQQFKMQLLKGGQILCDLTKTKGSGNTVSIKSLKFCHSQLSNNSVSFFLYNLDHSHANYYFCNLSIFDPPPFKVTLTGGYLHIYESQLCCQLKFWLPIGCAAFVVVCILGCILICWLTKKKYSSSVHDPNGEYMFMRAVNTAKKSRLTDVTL

T2: mouse ICOS-mFc (Chimerigen) (mouse, UniProt Q9WVS0 21-141, limits assumed)
T2 construct: Bought fusion; also called mICOS; recombinant mouse ICOS protein; not shown: mouse Fc
T2 sequence: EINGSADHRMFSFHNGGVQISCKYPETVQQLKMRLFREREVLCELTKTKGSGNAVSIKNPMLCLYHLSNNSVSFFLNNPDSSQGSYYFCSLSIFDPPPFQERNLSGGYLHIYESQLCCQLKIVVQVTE


How the values were obtained:
[1] = target: T1, human ICOS expressed on cells; assay: cell-based or functional assay
[2] = target: T1, human ICOS expressed on cells; assay: cell-based or functional assay; remark: listed apart in the source
[3] = target: FcγRIIIa on Jurkat NFAT luciferase v-variant effector cells (Promega) (human, UniProt P08637 17-254); assay: cell-based or functional assay
[4] = target: T2, mouse ICOS-mFc (Chimerigen); assay: DELFIA ELISA, coated mouse ICOS-mFc, mean
Experimental: Recombinant ICOS proteins, human ICOS-mFc or mouse ICOS-mFc (Chimerigen) were diluted in 1×PBS and added to Black Hi-bind plates (Griener) at 1 μg/ml, 50 μl/well. Recombinant PD-L1 proteins, human PD-L1-Flag-His or mouse-His were diluted in 1×PBS and added to Black Hi-bind plates (Griener) at 4 μg/ml, 50 μl/well. The plates were left overnight at 4° C. The next day plates were washed 3× with 300 μl/well of 1×PBS+0.1% Tween and blocked with 200 μl/well of 1×PBS+1% BSA blocking buffer for 1 hr at RT on a plate shaker. Plates were washed 3× with 300 μl/well of 1×PBS+0.1% Tween.
However, human-PD-L1 mAb² antibodies were diluted in 1×PBS+0.1% BSA buffer and diluted 1 in 2 from a starting working concentration of 0.066 μM over an 11 point titration. Titrated antibodies were added to the plates, 50 μl/well and left to incubate for 1 hr at R.T on a plate shaker. Plates were washed 3× with 300 μl/well of 1×PBS+0.1% Tween.
DELFIA® Eu-labelled Anti-human IgG(Perkin-Elmer) was diluted 1:500 in DELFIA Assay buffer (Perkin-Elmer) and added to the assay plate (50 μl/well), left to incubate for 1 hr at RT on a plate shaker. […] After incubation, assay was read on Envision plate reader (Perkin Elmer), Time-resolved fluorescence (TRF) was measured at 615 nm.

[5] = target: T3, human PD-L1 expressed on cells (human, UniProt Q9NZQ7 19-290); assay: flow cytometry on CHO cells expressing human PD-L1, anti-human IgG PE detection
T3 construct: also called CHO human PD-L1; CHO-S cells transfected with human PD-L1
Experimental: (§1) CHO-S cells untransfected (referred to as WT) or transfected with the cDNA coding for human PD-L1 were diluted in FACS buffer (PBS+1% w/v BSA+0.1% w/v sodium azide) and were distributed to a 96-well V-bottom plate (Greiner) at a density of 5×10⁴ cells per well. […] Plates were centrifuged at 300×g for 3 minutes to supernatant aspirated. 50 μL antibody or mAb² solution were added to cells and incubated at 4° C. for 1 hour. Cells were washed with 150 μL of PBS and centrifuged at 300 g for 3 minutes. Supernatant was aspirated and 150 μL PBS added. This wash step was repeated. […] Cells were incubated for 1 hour at 4° C. in the dark. Cells were washed as previously described. To fix cells, 100 μL 4% v/v paraformaldehyde was added and cells incubated for 20 minutes at 4° C., cells were pelleted by centrifugation at 300×g and the plates resuspended in 100 μL FACS buffer.

[6] = target: T4, mouse PD-L1 expressed on CHO-S cells (mouse, UniProt Q9EP73 19-290); assay: flow cytometry on CHO cells expressing mouse PD-L1, anti-human IgG PE detection
T4 construct: also called mPD-L1; CHO mouse PD-L1
Experimental: as §1, with “mPD-L1” for “the cDNA coding for human PD-L1”

FcγRIIIa on Jurkat NFAT luciferase v-variant effector cells (Promega), sequence (P08637 other isoform, or with tags, fused parts or gaps mutant limits assumed): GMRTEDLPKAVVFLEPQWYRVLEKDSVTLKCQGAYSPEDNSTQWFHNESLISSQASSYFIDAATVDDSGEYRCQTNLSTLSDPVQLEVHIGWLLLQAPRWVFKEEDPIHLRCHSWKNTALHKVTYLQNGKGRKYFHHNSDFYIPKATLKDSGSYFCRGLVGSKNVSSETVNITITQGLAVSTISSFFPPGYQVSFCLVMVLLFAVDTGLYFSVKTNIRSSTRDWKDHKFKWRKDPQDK
T4 sequence (Q9EP73 19-290 limits assumed): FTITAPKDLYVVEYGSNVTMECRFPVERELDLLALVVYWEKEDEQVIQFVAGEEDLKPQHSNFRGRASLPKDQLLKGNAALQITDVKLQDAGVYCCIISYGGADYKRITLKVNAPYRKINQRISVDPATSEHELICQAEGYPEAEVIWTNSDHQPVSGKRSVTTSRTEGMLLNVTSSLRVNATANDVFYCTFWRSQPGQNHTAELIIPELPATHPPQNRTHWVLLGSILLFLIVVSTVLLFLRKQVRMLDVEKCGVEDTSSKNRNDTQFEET
T3 sequence (Q9NZQ7 19-290 limits assumed): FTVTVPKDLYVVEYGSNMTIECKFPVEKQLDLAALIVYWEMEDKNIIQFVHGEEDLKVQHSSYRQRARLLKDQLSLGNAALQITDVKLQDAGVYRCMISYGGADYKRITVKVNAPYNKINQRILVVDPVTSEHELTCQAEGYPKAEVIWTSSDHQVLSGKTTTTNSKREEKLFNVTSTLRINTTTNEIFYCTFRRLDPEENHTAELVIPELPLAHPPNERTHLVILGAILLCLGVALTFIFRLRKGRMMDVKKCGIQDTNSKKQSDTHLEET

Binder	EC50, ADCC (BATDA dye release), ICOS-transfected CCRF-CEM targets, NK cells, Donor 326 [1] [pM]	EC50, ADCC (BATDA dye release), ICOS-transfected CCRF-CEM targets, NK cells, Donor 334 [1] [pM]	EC50, ADCC (BATDA dye release), ICOS-transfected CCRF-CEM targets, NK cells, Donor 341 [1] [pM]	EC50, ADCC (BATDA dye release), ICOS-transfected CCRF-CEM targets, NK cells, Median [1] [pM]	EC50 of IFN-γ release, plate-bound antibody, human T cells with CD3/CD28 beads, Median [2] [nM]	EC50 of IFN-γ release, plate-bound antibody, human T cells with CD3/CD28 beads, donor 276 [2] [nM]	EC50 of IFN-γ release, plate-bound antibody, human T cells with CD3/CD28 beads, donor 278 [2] [nM]	EC50 of IFN-γ release, plate-bound antibody, human T cells with CD3/CD28 beads, donor 289 [2] [nM]	EC50 of IFN-γ release, plate-bound antibody, human T cells with CD3/CD28 beads, donor 295 [2] [nM]	EC50, NFAT luciferase reporter, CHO human ICOS target cells, N=1 [3] [pM]	EC50, NFAT luciferase reporter, CHO human ICOS target cells, N=2 [3] [pM]	EC50, NFAT luciferase reporter, CHO human ICOS target cells, N=3 [3] [pM]	EC50, NFAT luciferase reporter, CHO human ICOS target cells, mean [3] [pM]	EC50, NFAT luciferase reporter, CHO mouse ICOS target cells, N=1 [3] [pM]	EC50, NFAT luciferase reporter, CHO mouse ICOS target cells, N=2 [3] [pM]	EC50, NFAT luciferase reporter, CHO mouse ICOS target cells, N=3 [3] [pM]	EC50, NFAT luciferase reporter, CHO mouse ICOS target cells, mean [3] [pM]	EC50 [4] [nM]	binding result [5]	binding result [6]
STIM003_289 (bispecific antibody, V domains shown, not shown: a dimerising Fc or GST) VH: EVQLVESGGGVVRPGGSLRLSCVASGVTFDDYGMSWVRQAPGKGLEWVSGINWNGGDTDYSDSVKGRFTISRDNAKNSLYLQMNSLRAEDTALYYCARDFYGSGSYYHVPFDYWGQGILVTVSS VL: EIVLTQSPGTLSLSPGERATLSCRASQSVSRSYLAWYQQKRGQAPRLLIYGASSRATGIPDRFSGDGSGTDFTLSISRLEPEDFAVYYCHQYDMSPFTFGPGTKVDIK	11.1	18.3	6.6	12	8.1	~6	~3.8	10.2	12.7	–	–	–	–	–	–	–	–	–	–	–
STIM001 (antibody, human IgG1, kappa, also called STIM001 IgG1; STIM0001) heavy: not shown light: DIVMTQSPLSLPVTPGEPASISCRSSQSLLHSNEYNYLDWYLQKPGQSPQLLIFLGSNRASGVPDRFSGSGSGTDFTLKITRVEAEDVGIYYCMQSLQTPLTFGGGTKVEIKRTVAAPSVFIFPPSDEQLKSGTASVVCLLNNFYPREAKVQWKVDNALQSGNSQESVTEQDSKDSTYSLSSTLTLSKADYEKHKVYACEVTHQGLSSPVTKSFNRGEC	42.6	20.5	7.6	23.6	10.7	~9.9	~10.2	~11.2	14.5	456	247	147	283	479	534	579	530	10.6	no binding (tested: about 2e-7 M (log M -6.7))	no binding (tested: about 2e-8 M (log M -7.7))
STIM003 (antibody, human IgG1, kappa, also called STIM003 IgG1) heavy: not shown light: EIVLTQSPGTLSLSPGERATLSCRASQSVSRSYLAWYQQKRGQAPRLLIYGASSRATGIPDRFSGDGSGTDFTLSISRLEPEDFAVYYCHQYDMSPFTFGPGTKVDIKRTVAAPSVFIFPPSDEQLKSGTASVVCLLNNFYPREAKVQWKVDNALQSGNSQESVTEQDSKDSTYSLSSTLTLSKADYEKHKVYACEVTHQGLSSPVTKSFNRGEC	21.2	3.7	6.7	10.5	5.55	7.1	3.8	~4	~11.6	326	477	240	347	508	754	702	655	–	no binding (tested: about 2e-7 M (log M -6.7))	no binding (tested: about 2e-8 M (log M -7.7))
STIM001_289 (bispecific antibody, V domains shown, not shown: a dimerising Fc or GST) VH: QVQVVQSGAEVKKPGASVKVSCKASGYTFSTFGITWVRQAPGQGLEWMGWISAYNGDTNYAQNLQGRVIMTTDTSTSTAYMELRSLRSDDTAVYYCARSSGHYYYYGMDVWGQGTTVTVSS VL: DIVMTQSPLSLPVTPGEPASISCRSSQSLLHSNEYNYLDWYLQKPGQSPQLLIFLGSNRASGVPDRFSGSGSGTDFTLKITRVEAEDVGIYYCMQSLQTPLTFGGGTKVEIK	30.9	4.1	~10.3	17.5	9.45	~10	8.9	7.1	11.9	–	–	–	–	–	–	–	–	–	–	–
